{
  "source": "the DeepSol protein solubility set",
  "data": [
    {"assay": "soluble on expression in E. coli; label from the status in PepcDB or PDB records", "values": [
      {"sequence": "MTKRLFLPEWAPQEAVQLTWPHDRTDWAYMLDEVETCFVRIATAILRHERLIVVCPDRKRVFGLLPPELHHRLYCFELPSNDTWARDHGGISLLADGRPMIADFAFNGWGMKFAAHHDNLITRRLHALGLFAEGVTLDNRLAFVLEGGALETDGEGTLLTTDSCLFEPNRNAGLSRTAIIDTLKESLGVSRVLSLRHGALAGDDTDGHIDTLARFVDTRTIVYVRSEDPSDEHYSDLTAMEQELKELRRPDGQPYRLVPLPMAEALYDGADRLPATYANFLIINGAVLVPTYDSHLDAVALSVMQGLFPDREVIGIDCRPLVKQHGSLHCVTMQYPQGFIRLEHHHHHH", "soluble on expression in E. coli": "soluble"},
      {"sequence": "MTKTEKDWFQRLIKLIKSDGRTMIEISKAAGCGQNYVQQMIKGGKRPSVDKLMALLNTLGNASAIYVITGFNISDEDLKLIALISSGDKKKIEALSLLLTEKKQ", "soluble on expression in E. coli": "not soluble"},
      {"sequence": "MTKTNLITGFLGSGKTTSILHLLAHKDPAEKWAVLVNEFGEVGIDGALLADSGALLKEIPGGCMCCVNGLPMQVGLNTLLRQGKPDRLLIEPTGLGHPKQILDLLTAPVYEPWIDLRATLCILDPRLLLDQQSVANENFRDQLASADIIIANKTDRATAQSDAALQQWWRQYGGDRQLIHAEHGQIDGKLLDLPRQNLAELPASAAHSHTHASKKGLAALNLPAQQRWRRSLNSGQGHQACGWIFDADTVFDTIGLLEWARLAPVGRVKGVMRIQEGLVRINRQGDDLHIETQSVAPPDSRVELISNTETDWNTLQTALLKLRLATHA", "soluble on expression in E. coli": "not soluble"},
      {"sequence": "MTKVTREEVEHIANLARLQISPEETEEMANTLESILDFAKQNDSADTEGVEPTYHVLDLQNVLREDKAIKGIPQELALKNAKETEDGQFKVPTIMNEEDALEHHHHHH", "soluble on expression in E. coli": "not soluble"},
      {"sequence": "MTKWKRANPNGTRDYLFEECTLIEEVEQKLRLTFLERGYEEIRTPTIEFYDVFAFQNRPIDEEKMYKFFDEKGRIIVLRPDMTIPLARVIGTQRWDTPLKVTYSGNVFRANESHSGKYNEIVQSGIEVIGIDNVRAEIECVISVIQALQKLKVQSFTIEIGQVQLYKCIVKKLSIQDEEERVLRTYIESKNYAALSNFIGEKKLDRCDETVRLLEKLPRLFGNLEVIEEAEKLASSNEMKMAIARVKEMYETIEMLGYGSYISIDLGMIQHLDYYTGVIFKGYIYEIGEEIVSGGRYDELIGNFGEMLPAVGLAVQVNQIVKALQEQQEPYERNQIDIVIHYELNRLAEAERLRNLLRKDGKNAWLSLFSNLSDTFQFARKNKIGTVVEAQNEYLVEYVWNEKWVVQKEGEASCVTFKLR", "soluble on expression in E. coli": "not soluble"},
      {"sequence": "MTLALLGSSLPAASLQAGETGISVSASSTVTYNPDTAEFTTTVESTDKDAAKAAAKVATLWSSLQQALRKVGISSADASSTSYTVSPEWEWNSANGKREFKGYKARHVVRVVVRDLGKLGGAIDAVVGAGSGTVDGLSYSSSRFESLRTQALENAVKSAKHDAEVMARAAGGRLGQPLELQYGQPQSDYPVMRFAMAEGFKAAPAPTDVEPGEQKLTVSVSSRWQFVSGSGKLEHHHHHH", "soluble on expression in E. coli": "not soluble"},
      {"sequence": "MTLDESCKILNIEESKGDLNMDKINNRFNYLFEVNDKEKGGSFYLQSKVYRAAERLKWELAQREK", "soluble on expression in E. coli": "soluble"},
      {"sequence": "MTLFEPSTSGNRMGYRGSSNSSSGVGSGGSGSLMTQSIGGPNKHLSASHSTLNTASTHDMMHSKIPKSPSNESLSRSHTSSSGGSQGGHNSNSGSNSGFRPEDAVQTFGAKLVPFEKNEIYNYTRVFFVGSHAKKQAGVIGGANNGGYDDENGSYQLVVHDHIAYRYEVLKVIGKGSFGQVIKAFDHKYQQYVALKLVRNEKRFHRQADEEIRILDHLRRQDSDGTHNIIHMLDYFNFRNHKCITFELLSINLYELIKRNKFQGFSLMLVRKFAYSMLLCLDLLQKNRLIHCDLKPENVLLKQQGRSGIKVIDFGSSCFDDQRIYTYIQSRFYRAPEVILGTKYGMPIDMWSLGCILAELLTGYPLLPGEDENDQLALIIELLGMPPPKSLETAKRARTFITSKGYPRYCTATSMPDGSVVLAGARSKRGKMRGPPASRSWSTALKNMGDELFVDFLKRCLDWDPETRMTPAQALKHKWLRRRLPNPPRDGLESMGGLADHEVCFIIF", "soluble on expression in E. coli": "not soluble"},
      {"sequence": "MTLIEPDMNLRMPDISTTVETLNLISKMEAQKENIRSVIAPEHKHKYKDIENGLKGEEKVLIEQMAQHCEAFKANFKGAAQGDWVKSAMSEIDSIKDDLKKINSLEHHHHHH", "soluble on expression in E. coli": "not soluble"},
      {"sequence": "MTLLASLRDWLKAQQLDAVLLSSRQNKQPHLGISTGSGYVVISRESAHILVDSRYYVEVEARAQGYQLHLLDATNTLTTIVNQIIADEQLQTLGFEGQQVSWETAHRWQSELNAKLVSATPDVLRQIKTPEEVEKIRLACGIADRGAEHIRRFIQAGMSEREIAAELEWFMRQQGAEKASFDTIVASGWRGALPHGKASDKIVAAGEFVTLDFGALYQGYCSDMTRTLLVNGEGVSAESHLLFNVYQIVLQAQLAAISAIRPGVRCQQVDDAARRVITEAGYGDYFGHNTGHAIGIEVHEDPRFSPRDTTTLQPGMLLTVEPGIYLPGQGGVRIEDVVLVTPQGAEVLYAMPKTVLLTGEA", "soluble on expression in E. coli": "soluble"},
      {"sequence": "MTLLGTALRPAATRVMLLGSGELGKEVAIECQRLGVEVIAVDRYADAPAMHVAHRSHVINMLDGDALRRVVELEKPHYIVPEIEAIATDMLIQLEEEGLNVVPCARATKLTMNREGIRRLAAEELQLPTSTYRFADSESLFREAVADIGYPCIVKPVMSSSGKGQTFIRSAEQLAQAWKYAQQGGRAGAGRVIVEGVVKFDFEITLLTVSAVDGVHFCAPVGHRQEDGDYRESWQPQQMSPLALERAQEIARKVVLALGGYGLFGVELFVCGDEVIFSEVSPRPHDTGMVTLISQDLSEFALHVRAFLGLPVGGIRQYGPAASAVILPQLTSQNVTFDNVQNAVGADLQIRLFGKPEIDGSRRLGVALATAESVVDAIERAKHAAGQVKVQG", "soluble on expression in E. coli": "soluble"},
      {"sequence": "MTMPLRGLGPPDDTGVREVSTGDDHHYAMWDAAYVLGALSAADRREFEAHLAGCPECRGAVTELCGVPALLSQLDRDEVAAISESAPTVVASGLSPELLPSLLAAVHR", "soluble on expression in E. coli": "soluble"},
      {"sequence": "MTMSLEVFEKLEAKVQQAIDTITLLQMEIEELKEKNNSLSQEVQNAQHQREELERENNHLKEQQNGWQERLQALLGRMEEV", "soluble on expression in E. coli": "soluble"},
      {"sequence": "MTMTQQIKAVVYDFGGVLLSYEGVMEKWVAMSRSLGLPDDAVHSESVGIEFSQWLGPDRSLFLGTLTVDDLEGGLFLQYLKHKYGNKLTDNVVIKPFTECLRGENVKIHKNMQKTVEILHKKGFKTAMLTNNMFLDKEHKETRLPCDLTHFDEVVESCLEHLMKPDARFYHLVEKRLGVKPEEIVFLDDLHENIEAAEKLGWNTILVEDIEKAIHELEGFTKVKLI", "soluble on expression in E. coli": "not soluble"},
      {"sequence": "MTNLKAVIPVAGLGMHMLPATKAIPKEMLPIVDKPMIQYIVDEIVAAGIKEILLVTHASKNAVENHFDTSYELESLLEQRVKRQLLAEVQSICPPGVTIMNVRQGEPLGLGHSILCARPAIGDNPFVVVLPDVVIDDASADPLRYNLAAMIARFNETGRSQVLAKRMPGDLSEYSVIQTKEPLDREGKVSRIVEFIEKPDQPQTLDSDIMAVGRYVLSADIWPELERTQPGAWGRIQLTDAIAELAKKQSVDAMLMTGDSYDCGKKMGYMQAFVKYGLRNLKEGAKFRKGIEKLLSE", "soluble on expression in E. coli": "not soluble"},
      {"sequence": "MTNNAVLQLRAERLARATRPFLARGNRVRRCQRCLLPLKSCLCDTLTPSQAKSRFCLVMFDTEPMKPSNTGRLIADILPDTAAFQWSRTEPPQALLELVQHPDYQPIVVFPASYAGEAREVISTPPAGKPPLFIMLDGTWPEARKMFRKSPYLDHLPVISVDLSRLSAYRLREIHAEGQYCTAEVAIALLDLAGDTEAATSLGEHFTRFKTRYLAGKTQHPGNVTALEHHHHHH", "soluble on expression in E. coli": "soluble"},
      {"sequence": "MTNYVKKVSIEDFGCQFLHTAHWNNRLRTTGGRFFPNDRHLDFNPKIYREFGIDIFRKIVRHELCHYHLYIQGKGYQHRDKAFKELLEKVDGLRYTPRVTAVKVNYHHYSCQSCGQVYRRRRRVNLRKFACGYCHGRLIESFLEHHHHHH", "soluble on expression in E. coli": "not soluble"},
      {"sequence": "MTPFTVDILIPIWNRPVETRNCLVTLMETTPSARLILIDNGSDRETERLLEEFSEILGERALFLKTSANQGFVRAVNRSLAQVEAPYAVVMQNTTLVTRGWLEPMVELADSRPDAGIIVPRLELEDGQGRRPKAAPPAGPVTEVSHGSFAASMVRRELVERQGGFDEELDGGPWCLRDYSRRAFRNGFLTLALDGAVVTYAEEVPLGSVARREETVRRSAETCRARWGREDAFCIYFPKDAEPEAVHGKLDVILRGARMGQCFTLILHPGLHKSLMETGHAPLHSNIALAPLPRFFATGEIRKIIGKLASVRGDTVTVAGVDGLSIPGVEGARSFSWLADEIRRRHESLYRPESP", "soluble on expression in E. coli": "soluble"},
      {"sequence": "MTPILTDRPALARHRTRACRAPALFLHEEAAREVEERLSEVNRRFTAPAVVTAFPEVWRDRLPNARIVTDAEELALDPGAHDLVIHALAMHWSNDPVGQLVQSRRALRPDGLFLGLLFGGRTLSELRIALAEAEAAVTGGLSPRVLPMAEIRDLGALLQRAGFALPVADSLVREVRYRDTLHLMRDLRAMGETNALEARLRRPSRRALFAEAEARYPRRADDRIVASFEIICLTGWAPHESQQKPLRPGSAARSLAEALAAARKDGPGDG", "soluble on expression in E. coli": "not soluble"},
      {"sequence": "MTPKEIFESNRPGSKDVAWCPGCGNFGIRNILIEAFSELNLKPTEVVIISGIGQAAKMPHYINVNGYHTLHGRAIPIATAVKAANPSLTVIAEGGDGDMYAEGGNHLLHAIRRNPDITVLIHNNQIYGLTKGQASPTTPIGMKTPTQPWGVFEEPLNPIALAIALGASFVARTFVGYFKESVEIIKQAIKHKGLAIVDIFQPCVSFNKLNTYSWYKEHTYWMKDHDPHDRIEAFKRAIETDPLPLGIFYINEKPTFEEQVPAYKRDKRPLWMRDPKIELVKKFFESKR", "soluble on expression in E. coli": "not soluble"},
      {"sequence": "MTPPEIDFFPDFIADPHRLFNHLKDSVLWDERMRARKTASFGAPYDYSQITYPAVPMPEALEQLCGPIEQLLGFRPNNCLLNCYPDGHSSMGFHSDANEQLVTGTGVVIVSLGHARAMVFRHKESGATFDYSLASGSLLHMSDELQKHWLHAIPKAPDAGERISLSFRQLKTGLEHHHHHH", "soluble on expression in E. coli": "soluble"},
      {"sequence": "MTPTHPTVTELLLPLSEIDDRGVYFEDSFTSWRDHIRHGAAIAAALRERLDPARPPHVGVLLQNTPFFSATLVAGALSGIVPVGLNPVRRGAALAGDIAKADCQLVLTGSGSAEVPADVEHINVDSPEWTDEVAAHRDTEVRFRSADLADLFMLIFTSGTSGDPKAVKCSHRKVAIAGVTITQRFSLGRDDVCYVSMPLFHSNAVLVGWAVAAACQGSMALRRKFSASQFLADVRRYGATYANYVGKPLSYVLATPELPDDADNPLRAVYGNEGVPGDIDRFGRRFGCVVMDGFGSTEGGVAITRTLDTPAGALGPLPGGIQIVDPDTGEPCPTGVVGELVNTAGPGGFEGYYNDEAAEAERMAGGVYHSGDLAYRDDAGYAYFAGRLGDWMRVDGENLGTAPIERVLMRYPDATEVAVYPVPDPVVGDQVMAALVLAPGTKFDADKFRAFLTEQPDLGHKQWPSYVRVSAGLPRTMTFKVIKRQLSAEGVACADPVWPIRR", "soluble on expression in E. coli": "soluble"},
      {"sequence": "MTQAILALSQIEKAFPGVKALDKASLNVYPGRVMALMGENGAGKSTLMKVLTGIYSKDAGSIEYQGQPVSFKGPRDSQLAGISIIHQELNLIPQLTIAENIFLGREMTSPFGRILWDEMHRKADQLLARLNVKHSAKTLLGELSLGEQQMVEIAKALSFESKVIIMDEPTDALTDTETESLFNVINELREQGCGIVYISHRLKEIFEICDDITVLRDGKFIGECRVCDTNEDGLIEMMVGRKLEEQYPRIAAQQGDISLEVIGLTGSGVHDVSFTLKKGEILGVSGLMGAGRTELMKVIYGALPSERGVINLNGRTVNPVSPQDGLANGIAYISEDRKGDGLVLGLSVKENMSLCALDQLSKGVQIRHADEVIAVDDFIRLFNIKTPSREQIIGNLSGGNQQKVAIAKGLMTKPKVLILDEPTRGVDVGAKKEIYQLINQFKAEGMSIILVSSEMPEVLGMSDRILVMHEGRISGEFMASEADQEKLMACAVGRNPAHAA", "soluble on expression in E. coli": "not soluble"}
    ]}
  ]
}
